Measurements: paper PMC3472098

Target: T1, Rrp44exo- (exoribonuclease-dead) (budding yeast, UniProt Q08162 1-1001, D551N)
T1 sequence: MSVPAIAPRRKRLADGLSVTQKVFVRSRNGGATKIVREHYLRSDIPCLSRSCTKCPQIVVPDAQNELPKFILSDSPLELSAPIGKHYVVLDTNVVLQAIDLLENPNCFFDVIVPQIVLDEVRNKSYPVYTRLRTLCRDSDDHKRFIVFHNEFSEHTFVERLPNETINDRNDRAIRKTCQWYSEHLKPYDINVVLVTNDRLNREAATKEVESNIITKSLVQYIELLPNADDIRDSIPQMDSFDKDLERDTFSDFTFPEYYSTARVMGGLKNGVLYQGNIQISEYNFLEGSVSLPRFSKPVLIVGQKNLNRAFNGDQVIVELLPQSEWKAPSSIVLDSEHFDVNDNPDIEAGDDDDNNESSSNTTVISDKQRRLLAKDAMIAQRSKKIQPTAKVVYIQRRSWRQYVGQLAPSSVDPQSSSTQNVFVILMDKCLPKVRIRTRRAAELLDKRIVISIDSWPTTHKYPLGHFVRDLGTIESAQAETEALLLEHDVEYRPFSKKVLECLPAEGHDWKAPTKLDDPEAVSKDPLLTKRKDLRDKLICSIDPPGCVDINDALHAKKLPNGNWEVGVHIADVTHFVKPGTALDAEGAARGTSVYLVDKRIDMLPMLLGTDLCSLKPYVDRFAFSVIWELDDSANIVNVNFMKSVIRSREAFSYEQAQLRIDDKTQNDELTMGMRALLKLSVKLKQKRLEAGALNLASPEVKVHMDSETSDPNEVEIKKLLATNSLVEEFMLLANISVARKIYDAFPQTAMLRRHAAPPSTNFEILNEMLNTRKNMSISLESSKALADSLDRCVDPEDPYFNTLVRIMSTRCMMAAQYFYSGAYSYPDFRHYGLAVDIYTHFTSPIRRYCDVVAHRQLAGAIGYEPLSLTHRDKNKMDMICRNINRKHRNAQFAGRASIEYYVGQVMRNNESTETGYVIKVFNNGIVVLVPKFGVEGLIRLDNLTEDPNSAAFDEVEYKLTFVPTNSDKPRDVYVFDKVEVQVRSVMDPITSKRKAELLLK
Assay: fluorescence polarization

B1: polyA RNA 49 nt (ssRNA)
RNA: AAAAAAAAAAAAAAAAAAAAAAAAAAAAAAAAAAAAAAAAAAAAAAAAA
- binding result: binds
